The labels stand for the following.
B1: GFP-ATG13(1–230):ATG101 [human] / GST-WIPI3 [not stated] (parent complex)
chain 1: METDLNSQDRKDLDKFIKFFALKTVQVIVQARLGEKICTRSSSSPTGSDWFNLAIKDIPEVTHEAKKALAGQLPAVGRSMCVEISLKTSEGDSMELEIWCLEMNEKCDKEIKVSYTVYNRLSLLLKSLLAITRVTPAYRLSRKQGHEYVILYRIYFGEVQLSGLGEGFQTVRVGTVGTPVGTITLSCAYRINLAFMSTRQFERTPPIMGIIIDHFVDRPYPSSSPMHPCN
chain 2: MNCRSEVLEVSVEGRQVEEAMLAVLHTVLLHRSTGKFHYKKEGTYSIGTVGTQDVDCDFIDFTYVRVSSEELDRALRKVVGEFKDALRNSGGDGLGQMSLEFYQKKKSRWPFSDECIPWEVWTVKVHVVALATEQERQICREKVGEKLCEKIINIVEVMNRHEYLPKMPTQSEVDNVFDTGLRDVQPYLYKISFQITDALGTSVTTTMRRLIKDTLAL
chain 3: not shown
B2: GFP-ATG13(1–230):ATG101 [human] / GST-WIPI2 [not stated] (parent complex)
chain 1: B1 chain 1
chain 2: B1 chain 2
chain 3: MNLASQSGEAGAGQLLFANFNQDNTSLAVGSKSGYKFFSLSSVDKLEQIYECTDTEDVCIVERLFSSSLVAIVSLKAPRKLKVCHFKKGTEICNYSYSNTILAVKLNRQRLIVCLEESLYIHNIRDMKVLHTIRETPPNPAGLCALSINNDNCYLAYPGSATIGEVQVFDTINLRAANMIPAHDSPLAALAFDASGTKLATASEKGTVIRVFSIPEGQKLFEFRRGVKRCVSICSLAFSMDGMFLSASSNTETVHIFKLETVKEKPPEEPTTWTGYFGKVLMASTSYLPSQVTEMFNQGRAFATVRLPFCGHKNICSLATIQKIPRLLVGAADGYLYMYNLDPQEGGECALMKQHRLDGSLETTNEILDSASHDCPLVTQTYGAAAGKAYTDDLGAVGGACLEDEASALRLDEDSEHPPMILRTD

In the first test the parent is B1. Put plainly: GST beads binding assay (microscopy-based, Glutathione Sepharose beads); 0.5 μM GST bait; 20 mM HEPES (pH 7.5), 200 mM NaCl, 2 mM MgCl2, 1 mM TCEP; room temperature, 60 minutes; read off a plot.
Consider chain 1 H214D, chain 1 F215D, for which the response was roughly 12000 A.U.

The variants in a further test derive from B2. Briefly: GST beads binding assay (microscopy-based, Glutathione Sepharose beads); 20 mM HEPES (pH 7.5), 200 mM NaCl, 2 mM MgCl2, 1 mM TCEP; room temperature, 60 minutes; read off a plot.
In the case of chain 1 METDLNSQDRKDLDKFIKFFALKTVQVIVQARLGEKICTRSSSSPTGSDWFNLAIKDIPEVTHEAKKALAGQLPAVGRSMCVEISLKTSEGDSMELEIWCLEMNEKCDKEIKVSYTVYNRLSLLLKSLLAITRVTPAYRLSRKQGHEYVILYRIYFGEVQLSGLGEGFQTVRVGTVGTPVGTITLSCAYRINLAFMSTRQFERTPPIMGIIIDDDVDRPYPSSSPMHPCN [chain 1 H214D, chain 1 F215D], the response is roughly 21000 A.U.

The record behind these values is paper doi:10.1101/2025.11.07.687251 (2025).
